Experimental data from publication PMC11480844.

B1: H2-Kb / E4 (parent)
chain 1: AQSVTQPDARVTVSEGASLQLRCKYSYSGTPYLFWYVQYPRQGLQLLLKYYSGDPVVQGVNGFEAEFIKSNSSFHLRKASVHWSDSAVYFCAVSAGQGGSAKLIFGEGTKLTVSS
chain 2: GGIITQTPKFLIGQEGQKLTLKCQQNFNHDTMYWYRQDSGKGLRLIYYSITENDLQKGDLSEGYDASREKKSSFSLTVTSAQKNEMAVFLCASSIWGDSYEQYFGPGTRLTVL
chain 3: not shown
chain 4: IQKTPQIQVYSRHPPENGKPNILNCYVTQFHPPHIEIQMLKNGKKIPKVEMSDMSFSKDWSFYILAHTEFTPTETDTYACRVKHDSMAEPKTVYWDRDM
chain 5: SIINFEKL
B2: H2-Kb / B16 (parent)
chain 1: QQQVRQSPQSLTVWEGGTTVLTCSYEDSTFNYFPWYQQFPGEGPALLISILSVSDKKEDGRFTTFFNKREKKLSLHIIDSQPGDSATYFCAARGSALGRLHFGAGTQLIVIP
chain 2: EAAVTQSPRSKVAVTGGKVTLSCHQTNNHDYMYWYRQDTGHGLRLIHYSYVADSTEKGDIPDGYKASRPSQENFSLILELASLSQTAVYFCASSDGTNQAPLFGEGTRLSVL
chain 3: not shown
chain 4: B1 chain 4
chain 5: SIINFEKL
B3: H2-Kb / B7 (parent)
chain 1: GQQVQQSPTSLVLQEGENAELQCNFSTSLNSMQWFYQRPGGSLVSVFYNPSGTKQSGRLTSTTVIKERRSSLHISSSQITDSGTYLCAMERDMGYKLTFGTGTSLLVDP
chain 2: EAAVTQSPRNKVAVTGGKVTLSCNQTNNHNNMYWYRQDTGHGLRLIHYSYGAGSTEKGDIPDGYKASRPSQENFSLILELATPSQTSVYFCASGDPGDQDTQYFGPGTRLLVL
chain 3: not shown
chain 4: B1 chain 4
chain 5: SIINFEKL

Variants of: B1
Test: % of reporter cells activated (NFAT-GFP), raw
Settings: with E4
Note: test concentration or dose not given here.

Ratio to parent, by site and new letter:
chain 5 E6: P 0.46, H 1.21, W 0.635, A 0.635, Y 1.08, G 0.746, Q 0.778, R 0.81, N 0.619, M 0.54, T 0.841, K 0.873, F 0.698, L 0.381, I 0.873, S 0.952, D 1.05, C 0.651, V 1.05
chain 5 F5: L 0.698, N 0.635, T 0.841, S 0.556, A 1.1, Y 0.492, C 1.63, G 0.46, M 0.629, W 0.54, P 0.762, V 0.206, D 1.32, R 0.508, I 0.746, E 0.429, H 0.825, K 0.825, Q 0.778
chain 5 I2: V 0.921, W 1.11, A 1.43, K 0.746, T 0.968, Q 0.937, N 1.27, Y 0.825, L 1.1, F 0.746, S 0.651, R 0.556, C 1.19, H 1.06, D 0.762, E 0.873, M 1.14, P 0.937, G 0.873
chain 5 S1: E 0.698, P 0.857, L 0.937, M 0.857, W 0.841, Q 0.889, V 0.889, R 0.565, A 0.857, K 1.24, N 0.825, Y 0.873, T 0.905, C 0.952, I 0.825, H 0.841, D 0.984, F 0.857, G 0.937
chain 5 I3: Y 0.508, D 0.73, K 0.937, L 1.22, M 1, N 0.667, V 0.698, Q 0.81, A 0.921, G 0.825, R 0.603, P 0.206, T 0.571, S 0.762, H 0.921, F 0.762, W 0.762, C 0.762, E 1.37
chain 5 N4: E 0.603, Q 0.714, S 0.714, I 0.873, M 0.968, V 0.825, P 0.651, H 1.05, F 0.635, W 0.286, K 1.1, D 0.794, C 0.921, G 0.698, L 1.02, Y 0.762, A 0.889, R 0.905, T 0.635
chain 5 L8: V 0.603, Q 0.524, Y 0.6, R 1.29, D 0.444, S 0.51, H 0.825, F 0.427, W 0.762, N 0.778, E 0.619, G 0.746, P 0.762, A 0.286, C 0.46, I 0.286, M 0.381, T 0.73, K 0.635
chain 5 K7: D 0.444, A 0.413, C 1.32, M 0.492, Q 0.521, P 0.508, E 0.873, L 0.508, V 0.841, R 0.633, F 0.49, T 0.378, H 0.905, N 0.437, G 0.841, W 0.413, Y 0.425, I 1.29, S 0.46

Variants of: B2
Test: % of reporter cells activated (NFAT-GFP), raw
Settings: with B16; scale: % of reporter cells activated

Ratio to parent of substitutions, site by site:
chain 5 F5: I 1.07, R 1.2, T 1.4, C 1.46, K 1.52, V 0.945, G 1.52, H 1.61, W 1.26, E 1.52, P 1.74, S 1.27, D 1.4, A 1.48, Q 1.39, M 1.52, Y 1.31, N 1.21, L 1.44
chain 5 I2: D 1.19, F 1.2, H 1.62, E 1.47, C 1.48, G 1.56, A 1.49
chain 5 E6: F 1.48, Y 1.02, D 1.36, P 1.09, C 2.48, H 1.39, G 1.23, K 1.12, A 1.57, Q 1.5, T 1.4, I 0.917, N 1.36, M 1.43, L 1.21, S 1.25, W 1.05, V 1.2, R 1.29

Variants of: B3
Test: % of reporter cells activated (NFAT-GFP), raw
Settings: with B7; scale: % of reporter cells activated

Ratio to parent: each site, then its substitutions
chain 5 E6: Y 0.969, C 1.46, V 1.02, T 1.63, M 0.985, A 1.17, D 1.43, K 1.32, N 1.2, H 1.65, G 1.45, I 1.14, L 1, P 1.25, F 1.52, S 1.38, Q 0.754, W 1.09, R 1.46
chain 5 I3: T 1.48, D 1.11, F 1.02, W 1.48, P 1.45, S 0.646, G 1.86, Y 1.2, Q 1.65, R 0.862, E 1.32, K 1.75, H 1.68, C 1.58
chain 5 F5: Q 1.25, N 1.31, E 1.49, D 1.55, M 1.68, I 0.938, A 1.62, P 1.74, R 0.923, H 1.34, Y 1.2, W 1.55, C 1.97, K 1.74, V 0.615, G 1.03, S 0.831, T 1.05
chain 5 I2: Q 1.25, D 1.45, P 1.72, K 1.51, T 1.85, E 1.35, W 1.46, R 0.846, V 1.43, Y 1.48, S 1.45, L 1.62, H 1.83, G 1.85, N 2.11, C 1.11, A 1.58
chain 5 K7: Y 1.18, L 1.32, M 0.908, Q 0.815, C 1.05, F 0.846, I 1.25, P 1.48, E 1.14, A 1.17, R 0.358, H 1.66, S 1.18, W 0.769, N 0.954, G 0.738, D 1.02, T 1.02
chain 5 N4: R 1, Y 1.03, T 1.12, C 0.908, D 1.69, S 1.11, A 1.31, G 1.15, W 1.28, Q 1.08, E 1.35, K 1.45, P 0.877, V 0.985, F 1.26, I 1.43, H 1.49, L 1.82
chain 5 S1: M 1.42, H 1.45, Q 2.08, T 1.62, D 1.55, E 1.29, F 0.831, I 0.969, P 1.74, V 1.8, W 1.77, G 1.57, C 1.8, N 0.862, L 1.03, A 1.63, R 1
chain 5 L8: V 0.585, W 0.585, S 0.6, T 0.646, E 0.326, H 1.23, F 0.677, I 0.831, A 0.862, Q 0.938, G 1.42, N 1, C 1.4, P 1.11, R 1.69, K 0.785
